Data published in the domain aggregation screens of Martell et al. (2025).

Assay: soluble fraction after stress (log2 fold change); higher = more stays soluble; pooled small domains, quantitative proteomics
Conditions: stress: 50 degC
How it was run: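 Each library was heated to 50°C as a stress step. The libraries, made up of small protein domains, were pooled and analysed at high throughput by quantitative proteomics. The reported value is the base-two logarithm of the fold change in each protein's soluble amount after stress, taken as a measure of aggregation propensity. The higher the value, the more protein stays in solution.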

| Sequence | soluble fraction (log2) |
| --- | --- |
| HMHRAKRTKAQTQSSLESIEGIGPKTRKQLLVHFGGLAEVKAASVSELQKVKGISLDKAQKIYDFFHGS | 0.00473 |
| HMLEQLTPRELKVLQALAQGRQNKEIAAQLVISERTVKFHVSAILSKLNVGNRTEAVTVAAQRGLISL | -1.03 |
| HMDLDPVEKLHLLSQLYVGQLKGSFVVKEKNQKTTIIGEVRELSHQTLSIRTNEGYRLIEVADILEIRLWE | -0.221 |
| HMEEQQIQLIQMKMEKDHKYVGKKISELRIKNMLIVLIKRGDEDIIPRAEVKIKEGDILVLSAQSYEG | -0.00468 |
| HMEHDYGLSGREREVLELMVQGLVKKEIADRLALSYHTVDNHLRSIYAKLQVHTRGGAVAKALSEHLVPP | 0.217 |
| HMSRQREWIYDYIQSHPDRHMSVEEIYEGLKAENREVSVATVYRNLKILQDENRIASLMLESGKQVFDK | -0.371 |
| HMNNLGSKIKELRIAENLTQEKLAEELNVSFQSISRWENGISTPDISLIPAIARFFGVSTDYLFGLQD | -0.384 |
| HMAPEQWYVLTSGQLPKGPYRLRHIVAMSKGDNWLVARKGAEQWTPLRHLPEFRQAQEANEYIQAIS | -0.968 |
| HMRNLFWTEAQNAQNELNAMRINALTQSIRRIEPNFRGIPSLRDPNRPIPNEEVRDYENYLNRILP | 0.119 |
| HMEFDYIVKVPDVRNKKIEDAGKILIDLGLKYTTESDYITQDLKVIDQFPLPGTEVSKGSIIDIYLEEDFK | 0.0944 |
| HMDIADKLTKREFEIFIAIAMNKSRFDIANELGLSAKTVSNGLTVIKRKLNAVPSQFSAIAAKHGYIG | -2.66 |
| HMGVIGADIRALRVSRGWTLSDLAEALDRSVGWLSQVERDVSEPALADIRRIAGIFDLPVSFFFSD | -2.86 |
| HMETDNEKVRTAFQNGLAAYREQDWDRAEAAFGAVLAEMPEDRPSLVYLERIAHLRKKAPPGAWDGVWI | -0.0616 |
| HMTKSEWLRESREHLGLSQTDLRNLLNTALNRSYDKSRISRWENSKENIPAEVVKQIESLIATR | 0.123 |
| HMTASTLSYSKFNEQVVQNQVRKVTFQGEQVKGELISGQTFTTTVPANDTTLWPMLKAHNVDTAVTAA | 0.229 |
| HMSEIYVDDINRKILYLLSQGIKTKSLLEHIPLSMSGIEKRKKQLKMLFSVEDGKDETLLEMAKEKGF | -1.45 |
| HMKMSVEEVNLSPRTTNALINNDIKTMKDLVALTDTELRDLKGFGSKAYEEVKEKLSELGLSTQ | 0.227 |
| HMEFEYTVVVPETRGKTIGEAGRILLDLELKYTSESMNIREDSKVIDQFPSPGTEVSKGSIIDLYLDE | 0.0563 |
| HMGDKVTIPNLIDMKLTDAQNQYKPQGFSIVKNGERESDKEAGTILEQDKAAGTEISGKDIRIFVVVSSGS | -0.00368 |
| HMTDKLEEEAKKKAMEDALADEMNISKTIVHDGIRELARIGFLDVISRKGIYVADYTFTGNLETLLAVIRY | -0.926 |
| HMEKLNERLLYLRKNANLTQQQLADKLHISNKTISQWETGRTLPDIVMLVRLAEIYDMKLDELLNQ | -0.29 |
| HMSAPAMTLDSIRSLLNDRDPWVVTQTVEWLVGLGPQVKTILETLTLESSDAARQAQNALDRINVRNYP | -0.155 |
| HMHMNFGEILQTKRKEKGFTQEELAHQLLVSSKTISNWETNKTTPDIDNVIRISQLFDISLNQLLLE | -0.379 |
| HMELADNFAKLILTARESKGWTQAQLGQRMAETINVIKSAESGKPPADSVIRKFEMILGIELM | -1.96 |
| HMAVETYRVKKSDTMQTIADRFGLSVEELLEYNQAYKTRELRARDILIIPSRKERKKLQQQKAQAAAQVVQ | -0.253 |
| HMGTVIGMGRITAGGVNFRETEGGGVIEKLERDTLVEVLTVPSVIDTTHWYQVRYNNRTGYVQAPFVQLLG | -0.0951 |
| HMTVSRRYTENEMETALKAYLATHNFISRRDMQQEFALTIYSARKWLNHFVDVGLIERIGLKNAPIYKL | -0.4 |
| HMQEGPGLVPDFRGQTMREVLRGGQSLGVRVAVDGTGLAVAQTPEPGSPLNKVSQVTVSFRPP | 0.0873 |

| Sequence | soluble fraction (log2) |
| --- | --- |
| HMGQAVTMLKAGRLLANAKGTGAPVRSLEPGMLLYPTGVKEGTMWEVEDEMGNKGWVNSTLMETA | -0.212 |
| HMIPYQDPLPKGAEESLLSKYPGFEITGVHFVNDTNFIGYKVRLERGEDREEISLDVNGKFL | 0.0829 |
| HMEDIEEVIVEIDTVLRTHFDRGRTEVLFAEIETAGGRPFMTYLALLFMAHRGSVRLQQDDLFGDLWVKDP | -0.0374 |
| HMQKMPEMQILPNGKVKLPDFSGINMRKAAELLQYGKLRLQPYGSGTAYQQKPAAGTEVDEGTVVEIWF | -0.218 |
| HMEEKWKENYEKIKLFISINNRYPSVYSEDKEEGLIGSFMSNQKRRKNKLSKEKMALFEALPNWIWE | -1.72 |
| HMTDVHFIDVPVSEGHPWIGLTVKDLNLPPGTLLVFLNHPGEKSTVPNGDTVLREGDVLVLGATAYAG | -0.0795 |
| HMEKIDYLSIGHRLRAYRIASSLKAEDVAESLGISRAAVYRLEKGEIVKIETLDNLARLLNTSLSSLLG | -2.94 |
| HMDLDEELDFLSDADESATKLDLARAYIDMGDKDGARDILAEVLEEGRSEQKREAQALLDSI | 0.406 |
| HMTQMSVLFSELEAKDAATIADKLRERNIPYELSNNGSTILIPQEVLHDTRLSLASEGLPES | -0.0936 |
| HMETIVGIDPDSKKKIVLKKGIKGRPDYLSFNKKNYSLPSELKEKNVSLEQALEIINDKKSNKKKIK | 0.334 |
| HMREEFIGVLDGKVAIFHGRPERKGPLKEVTAIEVDKLPRQEQADLEKGLVIRTDKEKLQLMEGLAALLD | 0.289 |
| HMSILDEAEFKKIESALLDFITNNIFTVKELLQASRGIKQDKFWKVFQFLQSERKVVVNELGYIEL | -0.205 |
| HMAGTAFPVRIMLKGIDRIGLLNEITGYISVAMGVNMRKLNLSTEDGIFEGYIDMLVHDRTVLESMIDNL | -0.381 |
| HMNREDYIKAIFKIAEREGEASNQRIADSLGVSRASASEMVKKLIQEGFVVAEGRQLSLSAEGERIA | 0.0824 |
| HMSKSIGEALKEERRSLGLTQEQFIKGIISESFYSKVERGKNEIVAVDLLKILAANNISEEEFLSKLN | -0.58 |
| HMKTPAPRETILSLFRQTPDGFVSGERISDELGVSRTAVWKHIRNLRQAGYQIEAIPSRGYQLQQS | -0.359 |
| HMEQVTMSNFLDKWGTSTKSPNAWYTSLSPMQKAEAKLLKEESGLTWNKWYEKNIYVGDGTN | 0.249 |
| HMGLSASVIQMFADLGYTSEGRSTKEMITDYQIDHSIIKNSTEDGAGTYGPRTKASLSTVHAQYI | -0.103 |
| HMTLAEEFNNLNGKVITRETLESLLVKAEKEQNSTISNRIRKVLQAYTADTFLIELQHTESA | 0.0776 |
| HMFHFELNAAKQALEDRKTIDRAKGILMRQRGMSEDDAYKLLRTTAMSQNRKVIDVAQALVTAADLL | -0.0832 |
| HMDDDDPDQEIAQYYEKLRAMNPDEETKQKLSDEINKLSKMMYSSQEAMVSRNYLDTVFSLPWHQF | -0.0959 |
| HMDIDASEVRGIISQYINEPDGRVSYILETIQKKYRYLPEEAIRIVAQELEVPLTQLFGVATFYAAFSL | 0.0443 |
| HMFDLENIRLTLARRLNVAAHLRPKYVAGFTLLLKQNFPEQNAEDLLNRLEHNQWLKVNQREIEYSPRLLM | -1.58 |
| HMEKIKNLTVTEFNLIANKNPSGSYDRITREALLHIIHKLESSYEAHTDLERKLFYKFRKAKFNAL | -1.91 |
| HMLIDSNNYFFYKVKPKEGFYSLQKKLGVNRSEIEKHNPSLINEVLKEGMILKIPKYLLNFDLN | -0.297 |
| HMVTYELTEDEKFIVSLLEKENSQPIGALKDKSALSGKKWDAAMKGLAKHGLTKVVVDGDNKLVVL | -0.00965 |
| HMGVDMAPESIVGKKGVAATELRPAGKVEIHGQVYDAVSVGMFIKRGTGVKVVRYEAAQIYVEPE | 0.146 |
